From article PMC2637916

What was measured:
[1] = target: Guanylyl cyclase activating protein 1 (GCAP1), recombinant, with the D6S mutation (UniProt P46065); test: SEC
[2] = target: Guanylyl cyclase activating protein 1 (GCAP1), recombinant, with the D6S mutation (UniProt P46065); test: pulsed-field gradient diffusion NMR

- stoichiometry N [1]: 2
- stoichiometry N [2]: 2
Substance: Guanylyl cyclase activating protein 1 (GCAP1), recombinant, with the D6S mutation (from UniProt P46065 1-205) (natural protein)
